We go through four molecules from patent US20230049152A1 (Genentech, published 2023).

Assay [1] deals with T1, human CCR5 (human, UniProt P51681 1-352).
T1 construct: whole, on cells; transiently expressed on HEK293 cells
Briefly: flow cytometry, HEK293 with N-term FLAG-tagged human CCR5. From the text:
(§1) FIGS. 4A-4F depicts the binding data of hu.Ab3.H1L1 (FIG. 4A), hu.Ab4.H1L1 (FIG. 4B), and hu.Ab5.H1L1 (FIG. 4C), as well as the commercial anti-CCR8 mAbs murine anti-human CCR8 mAb 433H (BD Biosciences) (FIG. 4D), and murine anti-human CCR8 mAb L263G8 (Biolegend) (FIG. 4E), and the humanized anti-human Yoshida anti-CCR8 mAb (FIG. 4F), to HEK293 cells that were transiently transfected with N-term FLAG-tagged plasmids encoding for human GPCRs (CCR2, CCR3, CCR4, CCR5, CCR8, CXCR4, ACKR2, and ACKR4), hCCR8 constructs, or with a mock construct using transIT X2 (reagent:DNA=3:1).
(§2) To confirm the selectivity to CCR8, the binding of hu.Ab3.H1L1, hu.Ab4.H1L1, and hu.Ab5.H1L1, as well as the Yoshida humanized anti-human CCR8, murine anti-human CCR8 mAb L263G8 (Biolegend, Commercial Ab) and murine anti-human CCR8 mAb 433H (BD Biosciences, Commercial Ab), were characterized by flow cytometry on HEK293 cells that were transiently transfected with plasmids encoding for FLAG-tagged other related human GPCRs (CCR2-5, CXCR4, ACKR2, and ACKR4). Cell surface expression of each GPCR was confirmed by staining with an anti-FLAG antibody control. […]

A further assay concerns the target T2, human CXCR4 (human, UniProt P61073 1-352).
T2 construct: whole, on cells; transiently expressed on HEK293 cells
The assay is described as follows: flow cytometry, HEK293 with N-term FLAG-tagged human CXCR4.
From the text: as §1, §2
(In general: Flow cytometry measures light scatter and fluorescence of single cells or particles in a stream.)

A further assay addresses T3, human CCR8 (human, UniProt P51685 1-355).
T3 construct: the assay field says which; also called hCCR8; huCCR8
Briefly: flow cytometry, 2 ug/mL mAb, Treg cells of human colorectal dissociated tumor cells. Here is the method:
The mAbs were evaluated for binding to regulatory T cells (Treg cells or Tregs) by Fluorescence-Activated Cell Sorting (FACS) flow cytometry. Human colorectal dissociated tumor cells (DTC) (Discovery Life Sciences) were thawed according to vendor's protocol. Cells were surface stained with eFluor 780-conjugated Fixable Viability Dye (ThermoFisher Scientific) and 2 ug/mL mAb specific for CCR8, OX40 (positive control), Herceptin (negative control), or anti-hIgG (negative control) for 20 min at 4° C. followed by secondary detection with AF647-conjugated AffiniPure F(ab′)2 Fragment Goat anti-Human IgG, Fcg fragment-specific (Jackson ImmunoResearch) for 10 min at 4° C. Cells were then intracellularly stained using the eBioscience Foxp3/Transcription Factor Staining Buffer Set (ThermoFisher Scientific) according to the manufacturer's protocol. […] Shown in FIG. 1 are mean fluorescent intensity (MFI) values for CD8 T cells (defined as CD45+CD14−CD3+CD8+CD4−) (circles, ◯), conventional CD4 T cells (defined as CD45+CD14−CD3+CD8−CD4+FOXP3−) (squares, □), and Treg cells (defined as CD45+CD14−CD3+CD8−CD4+FOXP3+) (triangles, ▴). Three of the five CCR8 mAb clones specifically stained Treg cells and not conventional CD4 or CD8 T cells and were ranked according to CCR8 MFI, greater than 500 MFI: hu.Ab4.H1L1>hu.Ab5.H1L1>hu.Ab3.H1L1. Upon confirmation that these three CCR8 mAb clones, namely, hu.Ab3.H1L1, hu.Ab4.H1L1, and hu.Ab5.H1L1, also retained human-cyno cross-reactivity (differences less than 5-fold on human and cyno CCR8 CHO cells), these antibodies carried forward for further exploration.

The target in assay [2] is T1, human CCR5. The assay is described as follows: flow cytometry, HEK293 with N-term FLAG-tagged human CCR5, procedure of FIG. 4. From the text: (§3) To confirm the selectivity to CCR8, the binding of hu.Ab3.H1L1, hu.Ab4.H1L1, and hu.Ab5.H1L1, as well as the Yoshida humanized anti-human CCR8, murine anti-human CCR8 mAb L263G8 (Biolegend, Commercial Ab) and murine anti-human CCR8 mAb 433H (BD Biosciences, Commercial Ab), were characterized by flow cytometry on HEK293 cells that were transiently transfected with plasmids encoding for FLAG-tagged other related human GPCRs (CCR2-5, CXCR4, ACKR2, and ACKR4). Cell surface expression of each GPCR was confirmed by staining with an anti-FLAG antibody control. In particular, HEK293 cells were transfected with N-term FLAG-tagged human CCR2, CCR3, CCR4, CCR5, CXCR4, ACKR2, ACKR4, hCCR8 constructs, or with a Mock construct using transIT X2 (reagent:DNA=3:1) for 24 hours, and surface stained with various anti-hCCR8 monoclonal antibodies at 5 ug/ml, or rabbit anti-Flag pAb (Sigma) followed by AF647-anti-hIgG or AF647-anti-RbIgG respectively. Antibodies hu.Ab4.H1L1, and hu.Ab5.H1L1, only stained the hCCR8-containing cells, confirming their specificity to hCCR8. […] Thus, the CCR8 selective hu.Ab4.H1L1 and hu.Ab5.H1L1 antibodies with the best ADCC activities were carried forward.
(§4) To reconfirm that the Ab4 and Ab5 variants remained selective to CCR8 compared to the corresponding HIL1 variants, binding was analyzed by flow cytometry following the procedure as described for FIG. 4A and FIG. 4B. […]

A further assay has as its target T4, human ACKR4 (human, UniProt Q9NPB9 1-350).
T4 construct: whole, on cells; transiently expressed on HEK293 cells
T4 sequence (looked up): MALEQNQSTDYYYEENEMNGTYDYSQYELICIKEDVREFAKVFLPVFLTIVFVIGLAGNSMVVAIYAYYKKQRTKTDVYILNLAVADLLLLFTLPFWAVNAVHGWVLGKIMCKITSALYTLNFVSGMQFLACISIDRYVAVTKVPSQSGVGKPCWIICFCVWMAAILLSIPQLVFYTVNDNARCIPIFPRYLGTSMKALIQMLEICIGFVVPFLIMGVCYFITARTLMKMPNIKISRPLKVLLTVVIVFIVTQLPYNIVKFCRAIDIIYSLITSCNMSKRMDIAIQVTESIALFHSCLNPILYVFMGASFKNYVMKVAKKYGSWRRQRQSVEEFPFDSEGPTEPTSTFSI
Briefly: flow cytometry, HEK293 with N-term FLAG-tagged human ACKR4, procedure of FIG. 4.
From the text: as §3, §4

A further assay concerns the target T5, human CCR2 (human, UniProt P41597 1-374).
T5 construct: whole, on cells; transiently expressed on HEK293 cells
The assay is described as follows: flow cytometry, HEK293 with N-term FLAG-tagged human CCR2, procedure of FIG. 4.
From the text: as §3, §4

T1 sequence (P51681 whole entry): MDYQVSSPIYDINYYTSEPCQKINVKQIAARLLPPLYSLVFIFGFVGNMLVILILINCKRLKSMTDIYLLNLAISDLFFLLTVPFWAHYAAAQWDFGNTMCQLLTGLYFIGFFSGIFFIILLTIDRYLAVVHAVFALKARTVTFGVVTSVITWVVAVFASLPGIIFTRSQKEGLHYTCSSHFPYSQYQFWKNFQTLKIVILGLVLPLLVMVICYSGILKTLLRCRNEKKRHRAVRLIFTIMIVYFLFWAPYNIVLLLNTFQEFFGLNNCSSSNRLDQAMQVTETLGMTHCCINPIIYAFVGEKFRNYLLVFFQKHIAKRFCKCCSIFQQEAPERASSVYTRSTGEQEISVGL
T5 sequence (P41597 whole entry): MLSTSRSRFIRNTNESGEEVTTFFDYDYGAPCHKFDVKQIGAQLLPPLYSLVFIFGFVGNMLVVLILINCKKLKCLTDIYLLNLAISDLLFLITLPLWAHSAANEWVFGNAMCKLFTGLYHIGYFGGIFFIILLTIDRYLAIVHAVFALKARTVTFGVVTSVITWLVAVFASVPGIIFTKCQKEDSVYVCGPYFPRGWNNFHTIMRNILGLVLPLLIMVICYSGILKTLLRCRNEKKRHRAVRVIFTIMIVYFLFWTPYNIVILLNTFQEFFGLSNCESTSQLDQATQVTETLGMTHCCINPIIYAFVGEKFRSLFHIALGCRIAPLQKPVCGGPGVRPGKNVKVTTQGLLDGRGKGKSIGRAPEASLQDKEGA
T2 sequence (P61073 whole entry): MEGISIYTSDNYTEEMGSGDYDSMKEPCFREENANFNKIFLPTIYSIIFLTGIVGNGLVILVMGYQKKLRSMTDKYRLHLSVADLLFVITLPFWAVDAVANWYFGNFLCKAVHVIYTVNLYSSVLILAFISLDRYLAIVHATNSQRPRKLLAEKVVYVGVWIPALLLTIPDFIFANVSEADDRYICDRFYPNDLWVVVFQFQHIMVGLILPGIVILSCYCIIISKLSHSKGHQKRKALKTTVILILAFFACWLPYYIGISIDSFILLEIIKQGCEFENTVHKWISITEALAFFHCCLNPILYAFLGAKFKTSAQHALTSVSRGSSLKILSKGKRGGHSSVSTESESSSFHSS

B1: hu.Ab4.H1L1 (antibody, human IgG1, kappa)
heavy: not shown
light: DYQMTQSPSSLSASVGDRVTITCQASQSISSYLSWYQQKPGKRPKLLIYKASTLASGVPSRFSGSGSGTDFTLTISSLQPEDFATYYCQQGYTSSNIDNIFGGGTKVEIKRTVAAPSVFIFPPSDEQLKSGTASVVCLLNNFYPREAKVQWKVDNALQSGNSQESVTEQDSKDSTYSLSSTLTLSKADYEKHKVYACEVTHQGLSSPVTKSFNRGEC
notes: also called hu.Ab4.H1Ll
In the case of B1, the binding result in the assay with human CCR5 [1] and with human CXCR4 was “no binding (tested: 5 ug/ml)” in each case. The molecule further returned an MFI in the assay with human CCR8 of over 500 MFI.

B2: hu.Ab4.H12L3 (antibody, human IgG1, kappa)
heavy: not shown
light: DYQMTQSPSSLSASVGDRVTITCQASQSISSYLSWYQQKPGKAPKLLIYKASTLASGVPSRFSGSGSGTDFTLTISSLQPEDFATYYCQQGYTSSNIDNIFGGGTKVEIKRTVAAPSVFIFPPSDEQLKSGTASVVCLLNNFYPREAKVQWKVDNALQSGNSQESVTEQDSKDSTYSLSSTLTLSKADYEKHKVYACEVTHQGLSSPVTKSFNRGEC
notes: fucosylated human IgG1; also called huCCR8-Ab4.H12L3.hIgG1; Ab4 variant
Take B2: the binding result in the assay with human CCR5 [2], with human ACKR4 and in the assay with human CCR2 was “no binding (tested: 5 ug/ml)” each time.

B3: hu.Ab5.H1L1 (antibody, human IgG1, kappa)
heavy: not shown
light: DIQVTQSPSSLSASVGDRVTITCQASENIANALAWYQQKPGKPPKFLIYGASNLASGVPSRFSGSGSGTDFTFTISSLQPEDIATYYCQQAYYGNSFVEGTFGGGTKVEIKRTVAAPSVFIFPPSDEQLKSGTASVVCLLNNFYPREAKVQWKVDNALQSGNSQESVTEQDSKDSTYSLSSTLTLSKADYEKHKVYACEVTHQGLSSPVTKSFNRGEC
Turning to B3, the binding result with human CCR5 [1] and in the assay with human CXCR4 was “no binding (tested: 5 ug/ml)” in each case. The same molecule showed an MFI with human CCR8 of over 500 MFI.

B4: hu.Ab5.H13L1 (antibody, human IgG1, kappa)
heavy: not shown
light: DIQVTQSPSSLSASVGDRVTITCQASENIANALAWYQQKPGKPPKFLIYGASNLASGVPSRFSGSGSGTDFTFTISSLQPEDIATYYCQQAYYGNSFVEGTFGGGTKVEIKRTVAAPSVFIFPPSDEQLKSGTASVVCLLNNFYPREAKVQWKVDNALQSGNSQESVTEQDSKDSTYSLSSTLTLSKADYEKHKVYACEVTHQGLSSPVTKSFNRGEC
notes: fucosylated human IgG1; also called Ab5 variant
Consider B4, for which the binding result in the assay with human CCR5 [2], in the assay with human ACKR4 and with human CCR2 was “no binding (tested: 5 ug/ml)” throughout.
